The source of these data is publication PMC10897489.

What all share (experiment): ITC
For orientation: In ITC the heat of successive injections is recorded.

For assay [1], the target named is GST-NSP3 1-181 (SARS-CoV-2).
Assay [2] deals with His-NSP3 1-181 WT (SARS-CoV-2).
In assay [3] the target is FXR1 215-360 (human).
Assay [4] addresses FXR1 215-360 (UniProt P51114). As to conditions: reference: unphosphorylated UBAP2L 243-270 peptide.

As to FXR1 215-360 (domain or fragment), in assay [1], the Kd worked out at 2.26 µM and the stoichiometry N amounted to 0.9. The substance further came in with a Kd in assay [2] of 2.9 µM.

Take “UBAP2L 243-270 peptide, phosphorylated on Ser254 (from UniProt F8W726 243-270)”: in assay [3], the Kd worked out at 25.5 µM and the stoichiometry N was 0.92.

“UBAP2L 243-270 peptide, phosphorylated on Thr246 (from UniProt F8W726 243-270)”: in assay [3], the Kd worked out at 3.66 µM and the stoichiometry N amounted to 0.9.

For “UBAP2L 243-270 (from UniProt Q14157) pS262 peptide”, the “binding against the reference” value in assay [4] (sites S262) is “lost”.

In assay [3], “UBAP2L 243-270 peptide (from UniProt F8W726 243-270)” yielded a Kd of 8.53 µM and a stoichiometry N of 0.96.

In the case of “UBAP2L 243-270 (from UniProt Q14157) pT246 peptide”, in assay [4] (sites T246), the KD entry is on record as “stronger; reference 8.5”.

For “UBAP2L 243-270 (from UniProt Q14157) pS254 peptide”, the “binding against the reference” value in assay [4] (sites S254) was “lost”.

A word on the Kd: it is the constant that tells how readily two partners part at equilibrium. Read a high Kd as a looser complex. For orientation: stoichiometry N means a count of units in the complex or per binding partner.
